Results: patent US7144862B2, “Orally administered peptides to ameliorate atherosclerosis” (The Regents of the University of California, priority 2000, dated 2006)
Entries after “also recorded” stand apart in the source; their conditions may differ. Non-standard residues stand in square brackets, D forms with d. Residues, ends and D or L forms follow the SMILES beside them.

How the values were obtained:
[1] = test system: Human aortic wall cocultures; experiment: LDL plus peptide in vitro in human aortic wall cocultures, monocyte chemotactic activity (Example 2); format: cell-based; details: control LDL 250 μg/ml plus varying amounts of peptide
Experimental: Human aortic wall cocultures were incubated with medium alone (LDL, NO CELLS or CELLS, NO LDL, see FIG. 9), control LDL from normal subjects at 250 μg/ml (LDL) and LDL plus control HDL from normal subjects at 350 μg/ml (+HDL). Other cocultures were incubated With the control LDL together with varying amounts (micrograms shown on the abscissa) of either D-2F, or L-2F (third panel from the left, 2F) or D-37-pA or L-37pA (last panel on the right, 37pA). The data represent mean±SD of values obtained from quadruplicate cocultures.

[2] = test system: red blood cells of LDL receptor deficient mice; experiment: In vitro red cell lysis after gavage of D peptides; format: in vivo, mouse; details: 100 μg by gavage, blood 17 and 48 hrs later
Experimental: Red cells were separated by centrifugation, were diluted to 10% hematocrit with PBS and incubated at 37° C. with gentle mixing. Aliquots were removed at time points t=0, 2, 6 and 18 hrs, cell pellets spun down and the optical density due to the released hemoglobin determined.

[3] = test system: human artery wall cell cocultures; experiment: Lipoproteins from mice given peptide by gavage tested in human artery wall cell cocultures (monocyte chemotactic activity); details: for resistance of circulating mouse LDL to oxidation (monocyte chemotactic activity): 100 μg by gavage, LDL receptor-deficient mice, blood 17 hrs later
Experimental: Groups of LDL receptor-deficient mice (n=3) were administered the D-peptides or the saline vehicle by gavage. […] Blood was collected from retroorbital sinus under mild anesthesia 17 hrs later. LDL was isolated from plasma by FPLC. Cocultures of artery wall cells were incubated with medium alone (NO ADDITION), control LDL from normal subjects (LDL), LDL plus control HDL from normal subjects (+HDL). […] The cocultures were incubated for 4 hrs at 37° C. in the presence of 10% LPDS. The supernatants were then discarded, the cocultures were washed and incubated with culture medium without serum or LPDS for an additional 4 hrs. This conditioned medium was collected and analyzed for monocyte chemotactic activity. The values are mean±SD of quadruplicate cocultures.
Blood was collect after 6 hrs, plasma HDL and LDL were isolated by gel filtration (FPLC) and examined in the cocultures. […] Human LDL at 200 μg protein/ml was added to human artery wall cell cocultures together with human HDL (hHDL) at 350 μg protein/ml or mouse HDL (mHDL) at 100 μg cholesterol/ml taken from mice that received saline (Saline Rx) or L-4F (L-4F Rx) or D-4F (D-4F Rx) and monocyte chemotactic activity was determined as described herein. […] On the right, mouse LDL (mLDL) was isolated from mice receiving saline (Saline Rx) or L-4F (L4F Rx) or D-4F (D-4F Rx) and was added at 100 μg cholesterol/ml to the artery wall cell cocultures without HDL and monocyte chemotactic activity determined. Values are mean±SD) for four wells in two independent experiments.
Either saline or 2F synthesized from D amino acids or from L amino acids was instilled in the stomachs of mice by gavage (instillation in the stomach by tube). After gavage the mice were bled and their LDL isolated and added to the human artery wall cell cocultures.
The animals were bled 1.5, 3 or 6 hours later and their HDL, LDL, and VLDL/IDL isolated.
Human aortic endothelial and smooth muscle cells were isolated and cultured as previously described (Id.). Cellular oxidation of LDL in the presence and absence of HDL was determined as described (Id.). Human blood monocytes were isolated after obtaining informed consent and monocyte chemotaxis was determined as described previously^5.

[4] = Antibody formation against D-2F (other studies); format: in vivo
[5] = test system: C57BL/6J mice fed an atherogenic diet; experiment: Aortic lesion formation, daily intraperitoneal injection for 16 weeks, atherogenic diet; format: in vivo, mouse; details: 5F 20 μg or MoAI 50 μg daily i.p.
Experimental: The livers were removed and weighed.
Histological evaluations were performed according to the method of Paigen et al. (Paigen et al. (1990) Arteriosclerosis 10: 316–323) with some modifications. Briefly, hearts were fixed for at least one week in the phosphate-buffered formaldehyde solution. After removing the lower ⅔ of the hearts, the remaining tissue was frozen in OCT medium (Tissue-Tek, Miles Inc., Elkhart, Ind.) and sectioned in a cryostat at −20° C. Alternate 20 μm sections were saved on slides, and observed for the beginning of the aortic root. Sections were then collected for an additional 600 μm, or until the aortic cross-section was rounded and the valve cusps were no longer evident. Slides were stained with Oil Red O, and counterstained with hematoxylin. Stained lesion cross-sectional areas were measured in consecutive slides 80 μm apart by image analysis (SigmaScan Pro, SPSS Scientific, Chicago, Ill.), and the average lesion area was determined for each aortic sinus over the 400 μm length (five slides) providing the greatest mean lesion area.

[6] = Plasma cholesterol lipoprotein profiles (CLiP); format: in vivo, mouse; details: 16 weeks atherogenic diet, daily i.p.
Experimental: Plasma cholesterol lipoprotein profiles were measured using our recently-developed CLiP method (Garber et al. (2000) J. Lipid Res. 41:1020–1026). Briefly, 5 to 10 μl of plasma were analyzed using a single Superose 6 (Pharmacia, Piscataway N.J.) column. Immediately following the column, cholesterol reagent was introduced through a mixing tee, and the eluent:reagent mixture entered a post-column reaction coil. Cholesterol content of the eluent mixture was spectrophotometrically detected at 500 nm, and data points were collected into a computer. The resulting profiles were decomposed into component peaks and analyzed for relative area using PeakFit (SPSS Science, Chicago, Ill.); absolute cholesterol values for total cholesterol and each component peak were determined by comparison with a control sample of known values. In some cases fractions were collected to determine distribution of radioactivity. The CLiP method allowed analysis of individual mouse samples, avoiding the use of pooled samples.

[7] = Antibody detection by indirect ELISA after 16 weeks of daily injection; format: in vivo, mouse; details: plasma at conclusion of 16-week injection period
Experimental: To determine whether daily injections of peptides elicited any immune response in mice, indirect ELISA titration (Engvall (1980) Meth. Enzymol. 70:419–439) was carried out with plasma taken from mice at the time of organ collection (following sixteen weeks of daily injection). Plates were coated with the injected peptides or MoAI (10 μg/ml). Plates were incubated overnight. After thorough washing with borate buffered saline (pH 8.2) containing 0.05% Tween 20, and blocking with buffer (0.1% gelatin and 0.1% BSA in borate buffer) for 1 h, 200 μl of the diluted mouse plasma (1:100 dilution) samples were serially diluted 1:1 with borate-buffered saline. Biotinylated goat antibody to mouse IgG (0.1 μg/ml) was then added to the wells and the plates were treated with SA-HRP (Streptavidin-horse radish peroxidase) for an hour and developed with ABTS and peroxide as substrate. The plates were incubated overnight at room temperature after every addition of antigen/antibody and washed thoroughly with borate buffered saline (pH 8.2) containing 0.05% Tween 20, and blocked with buffer (0.1% gelatin and 0.1% BSA in borate buffer) for 1 h before the next addition.

[8] = mouse, in vivo
Experimental: The 5F peptide, MoAI, and human apo A-I were labeled with ^125I by the method of Bilheimer et al. (1972) Biochim. Biophys. Acta 260: 212–221. Mice were placed on a modified Thomas-Hartroft atherogenic diet (#TD88051; Teklad, Madison, Wis.) for four weeks at which time daily intraperitoneal injections of peptide or protein dissolved in 200 μl phosphate-buffered saline (PBS) were begun. Animals injected with MoAI or human apo A-I received 50 μg per animal; those injected with 5F received 20 μg. Animals were not fasted for the kinetic studies and blood samples were taken under xylazine:ketamine anesthesia from the retro-orbital sinus at 15, 30, and 45 minutes, and 1, 1.5, 2, 3, 4, 6, 8, 12, and 24 hours following injection. Each animal provided three blood samples at different time points (all retro-orbital and alternating eyes), and at least three samples were collected (from different animals) at each time point. Samples were collected into heparinized capillary tubes, then placed in microcentrifuge tubes; the plasma was separated by centrifugation. Duplicate 10 μl aliquots of each sample were taken for radioactivity determination, using gamma counting (Cobra; Packard Instruments, Downers Grove, Ill.) for 10 minutes per sample. Total plasma volume was calculated as 4.2% body weight. Each sample was expressed as percent of injected CPM in total plasma. Free ^125I was determined by trichloroacetic acid (TCA) precipitation (1 ml of 10% TCA per 10 μl plasma sample). Fitting to the kinetic model was done using all data points, rather than averages at each time point (PKAnalyst, MicroMath Scientific Software, Salt Lake City, Utah).
Treatment groups were compared by two-tailed t-tests or one way analysis of variance (where the data were normally distributed), or by one way analysis of variance on ranks (SigmaStat; SPSS Science, Chicago, Ill.). Kinetics of peptide or protein turnover were analyzed by fitting to a first order one-compartment kinetic model assuming non-equal input and output rates (PKAnalyst; MicroMath Scientific Software, Salt Lake City, Utah).

[9] = Survival, toxicity, body and liver weights after 16 weeks of injection
Experimental: Mice were acquired at six weeks of age, and randomized into groups of 20, except that a negative control group of 10 received no treatments and was given standard rodent chow. At eight weeks of age, the treatment groups were placed on a modified Thomas-Hartroft atherogenic diet (#TD88051; Teklad, Madison, Wis.), and injections were begun. […] Animals were injected intraperitoneally daily for 16 weeks, including weekends and holidays.
At the end of the study (week 16), at the last bleeding, the heart and the liver were excised. […] The livers were removed and weighed.

[10] = after 16 weeks, atherogenic diet, daily i.p., mean ± SEM

CC(C)C[C@@H](NC(=O)[C@@H](Cc1c[nH]c2ccccc12)NC(=O)[C@H](N)CC(=O)O)C(=O)N[C@H](CCCCN)C(=O)N[C@H](C)C(=O)N[C@H](Cc1ccccc1)C(=O)N[C@H](Cc1ccc(O)cc1)C(=O)N[C@H](CC(=O)O)C(=O)N[C@H](CCCCN)C(=O)N[C@@H](C(=O)N[C@H](C)C(=O)N[C@H](CCC(=O)O)C(=O)N[C@H](CCCCN)C(=O)N[C@H](CC(C)C)C(=O)N[C@H](CCCCN)C(=O)N[C@H](CCC(=O)O)C(=O)N[C@H](C)C(=O)N[C@H](Cc1ccccc1)C(=O)N1CCC[C@@H]1C(=O)N[C@H](CC(=O)O)C(=O)N[C@H](Cc1c[nH]c2ccccc12)C(=O)N[C@H](CC(C)C)C(=O)N[C@H](CCCCN)C(=O)N[C@H](C)C(=O)N[C@H](Cc1ccccc1)C(=O)N[C@H](Cc1ccc(O)cc1)C(=O)N[C@H](CC(=O)O)C(=O)N[C@H](CCCCN)C(=O)N[C@@H](C(=O)N[C@H](C)C(=O)N[C@H](CCC(=O)O)C(=O)N[C@H](CCCCN)C(=O)N[C@H](CC(C)C)C(=O)N[C@H](CCCCN)C(=O)N[C@H](CCC(=O)O)C(=O)N[C@H](C)C(=O)N[C@H](Cc1ccccc1)C(=O)O)C(C)C)C(C)C [Peptide D-37pA] (H-[dD][dW][dL][dK][dA][dF][dY][dD][dK][dV][dA][dE][dK][dL][dK][dE][dA][dF][dP][dD][dW][dL][dK][dA][dF][dY][dD][dK][dV][dA][dE][dK][dL][dK][dE][dA][dF]-OH)
monocyte chemotactic activity induced by LDL treated with peptide in vitro [1]: significantly different from LDL
red cell lysis (hemolysis) after gavage [2]: resistant to hemolysis
resistance of circulating mouse LDL to oxidation (monocyte chemotactic activity) [3]: resistant to oxidation

CC(=O)N[C@H](CC(=O)O)C(=O)N[C@H](Cc1c[nH]c2ccccc12)C(=O)N[C@H](CC(C)C)C(=O)N[C@H](CCCCN)C(=O)N[C@H](C)C(=O)N[C@H](Cc1ccccc1)C(=O)N[C@H](Cc1ccc(O)cc1)C(=O)N[C@H](CC(=O)O)C(=O)N[C@H](CCCCN)C(=O)N[C@@H](C(=O)N[C@H](C)C(=O)N[C@H](CCC(=O)O)C(=O)N[C@H](CCCCN)C(=O)N[C@H](CC(C)C)C(=O)N[C@H](CCCCN)C(=O)N[C@H](CCC(=O)O)C(=O)N[C@H](C)C(=O)N[C@H](Cc1ccccc1)C(N)=O)C(C)C [Peptide D-2F, Ac-D-W-L-K-A-F-Y-D-K-V-A-E-K-L-K-E-A-F-NH2] (Ac-[dD][dW][dL][dK][dA][dF][dY][dD][dK][dV][dA][dE][dK][dL][dK][dE][dA][dF]-NH2)
monocyte chemotactic activity induced by LDL treated with peptide in vitro [1]: significantly different from LDL; also recorded: equally able to block LDL oxidation and LDL-induced monocyte chemotactic activity
red cell lysis (hemolysis) after gavage [2]: resistant to hemolysis
antibody formation against the peptide [4]: not seen evidence of antibody formation
resistance of circulating mouse LDL to oxidation (monocyte chemotactic activity) [3]: resistant to oxidation
monocyte chemotaxis induced by LDL from mice given 2F by gavage ([3]; D versus L form by gavage): reduced monocyte chemotaxis

B1: Mouse apo A-I: mouse apo A-I isolated from the plasma of C57BL/6J mice (protein, UniProt Q00623 25-264, looked up)
Apolipoprotein A-I: DEPQSQWDKVKDFANVYVDAVKDSGRDYVSQFESSSLGQQLNLNLLENWDTLGSTVSQLQERLGPLTRDFWDNLEKETDWVRQEMNKDLEEVKQKVQPYLDEFQKKWKEDVELYRQKVAPLGAELQESARQKLQELQGRLSPVAEEFRDRMRTHVDSLRTQLAPHSEQMRESLAQRLAELKSNPTLNEYHTRAKTHLKTLGEKARPALEDLRHSLMPMLETLKTQVQSVIDKASETLTAQ
mean lesion cross-sectional area compared with PBS-injected animals [5]: no difference in lesion area
HDL as percent of total cholesterol [6]: (9.34 ± 1.19%*)
IDL + LDL as percent of total cholesterol [6]: (42.44 ± 2.46%)
VLDL as percent of total cholesterol [6]: (48.23 ± 2.75%)
HDL cholesterol ([6]; mean ± SEM): 19.50 ± 3.07 mg/dL
IDL + LDL cholesterol ([6]; mean ± SEM): 87.86 ± 8.34 mg/dL
TC (total cholesterol) ([6]; mean ± SEM): 207.45 ± 16.94 mg/dL
VLDL cholesterol ([6]; mean ± SEM): 100.08 ± 9.73 mg/dL
antibodies against the injected material [7]: No antibodies were detected
Max. % in plasma [8]: 13.5%
Time (h) to max. CPM ([8]; ip): 1.74 h
T½ ([8]; ip): 15.7 h
toxicity ([9]; 16 weeks daily i.p. injection): No toxicity
Body Weight [9, 10]: 21.16 ± 0.34 g
Liver Weight [9, 10]: 1.72 ± 0.04 g
Liver: Body (percentage) [9, 10]: 8.15 ± 0.23%
mice died from unexplained causes ([9]; during the prolonged diet studies, groups of 20): Two
